{"source": "ChEMBL document CHEMBL1157682", "about": "“In silico prediction of human carboxylesterase-1 (hCES1) metabolism combining docking analyses and MD simulations” (Bioorg Med Chem, 2010)", "key": {"not read": {"substrate": "COC(=O)[C@H](c1ccccc1Cl)N1CCc2sccc2C1", "assay": "not read"}, "[1]": {"substrate": "CC1(C)[C@H](C=C(Cl)Cl)[C@H]1C(=O)OCc1cccc(Oc2ccccc2)c1", "assay": "(§1) Activity at human recombinant CES1 expressed in baculovirus-infected Spodoptera frugiperda Sf21 cells assessed as substrate hydrolysis by fluorescence assay"}, "[2]": {"substrate": "CC(=O)Oc1ccc2c(C)cc(=O)oc2c1", "assay": "as §1"}, "[3]": {"substrate": "COc1ccc2cc([C@H](C#N)OC(=O)[C@H]3[C@H](C=C(Cl)Cl)C3(C)C)ccc2c1", "assay": "as §1"}, "[4]": {"substrate": "CCOC(=O)[C@H](CCc1ccccc1)N[C@@H](C)C(=O)N1Cc2ccccc2C[C@H]1C(=O)O", "assay": "as §1"}, "[5]": {"substrate": "CN(C)C(=O)COC(=O)Cc1ccc(OC(=O)c2ccc(NC(=N)N)cc2)cc1", "assay": "as §1"}, "[6]": {"substrate": "COc1cc(C(=O)OCCCN2CCCN(CCCOC(=O)c3cc(OC)c(OC)c(OC)c3)CC2)cc(OC)c1OC", "assay": "as §1"}, "[7]": {"substrate": "COc1ccc2cc([C@H](C#N)OC(=O)[C@H]3[C@@H](C=C(Cl)Cl)C3(C)C)ccc2c1", "assay": "as §1"}, "[8]": {"substrate": "CCCC(=O)Oc1ccc([N+](=O)[O-])cc1", "assay": "as §1"}, "[9]": {"substrate": "COc1ccc2cc(C(C#N)OC(=O)C3C(C)(C)C3(C)C)ccc2c1", "assay": "as §1"}, "[10]": {"substrate": "CCOC(=O)C1=C[C@@H](OC(CC)CC)[C@H](NC(C)=O)[C@@H](N)C1", "assay": "as §1"}, "[11]": {"substrate": "COc1ccc2cc([C@@H](C#N)OC(=O)[C@H]3[C@H](C=C(Cl)Cl)C3(C)C)ccc2c1", "assay": "as §1"}, "[12]": {"substrate": "N[C@@H](Cc1ccccc1)C(=O)OC[C@H]1O[C@@H](n2cc(F)c(=O)[nH]c2=O)C[C@@H]1O", "assay": "as §1"}, "[13]": {"substrate": "CC(=O)Oc1ccc([N+](=O)[O-])cc1", "assay": "as §1"}, "[14]": {"substrate": "COc1ccc2cc([C@H](C#N)OC(=O)[C@@H]3[C@@H](C=C(Cl)Cl)C3(C)C)ccc2c1", "assay": "as §1"}, "[15]": {"substrate": "CC(=O)O[C@H]1C=C[C@H]2[C@H]3Cc4ccc(O)c5c4[C@@]2(CCN3C)[C@H]1O5", "assay": "as §1"}, "[16]": {"substrate": "N[C@@H](CC(=O)O)C(=O)OC[C@H]1O[C@@H](n2cc(F)c(=O)[nH]c2=O)C[C@@H]1O", "assay": "as §1"}, "[17]": {"substrate": "COc1ccc2cc([C@@H](C#N)OC(=O)[C@H]3[C@@H](C=C(Cl)Cl)C3(C)C)ccc2c1", "assay": "as §1"}, "[18]": {"substrate": "COC(=O)[C@H]1[C@@H](OC(=O)c2ccccc2)C[C@@H]2CC[C@H]1N2C", "assay": "as §1"}, "[19]": {"substrate": "CC(=O)Oc1ccc2c3c1O[C@H]1[C@@H](OC(C)=O)C=C[C@H]4[C@@H](C2)N(C)CC[C@@]341", "assay": "as §1"}, "[20]": {"substrate": "COc1ccc(C(=O)N2CCCC2=O)cc1", "assay": "as §1"}, "[21]": {"substrate": "COc1ccc2cc([C@H](C#N)OC(=O)[C@@H]3[C@H](C=C(Cl)Cl)C3(C)C)ccc2c1", "assay": "as §1"}, "[22]": {"substrate": "CCOC(=O)[C@H](CCc1ccccc1)N[C@H]1CS[C@H](c2cccs2)CN(CC(=O)O)C1=O", "assay": "as §1"}, "[23]": {"substrate": "CCOC(=O)C1(c2ccccc2)CCN(C)CC1", "assay": "as §1"}, "[24]": {"substrate": "CCc1c2c(nc3ccc(OC(=O)N4CCC(N5CCCCC5)CC4)cc13)-c1cc3c(c(=O)n1C2)COC(=O)[C@]3(O)CC", "assay": "as §1"}, "[25]": {"substrate": "COC(=O)[C@H](c1ccccc1)[C@H]1CCCCN1", "assay": "as §1"}, "[26]": {"substrate": "CC1(C)[C@H](C(=O)OCc2cccc(Oc3ccccc3)c2)[C@@H]1C=C(Cl)Cl", "assay": "as §1"}, "[27]": {"substrate": "CCOC(=O)[C@H](CCc1ccccc1)N[C@H]1CCc2ccccc2N(CC(=O)O)C1=O", "assay": "as §1"}, "[28]": {"substrate": "CCOC(=O)[C@H](CCc1ccccc1)N[C@@H](C)C(=O)N(CC(=O)O)C1Cc2ccccc2C1", "assay": "as §1"}, "[29]": {"substrate": "[H][C@@]1([C@@H](C(=O)OC)c2ccccc2)CCCCN1", "assay": "as §1"}, "[30]": {"substrate": "CC(C)C[C@H](N)C(=O)OC[C@H]1O[C@@H](n2cc(F)c(=O)[nH]c2=O)C[C@@H]1O", "assay": "as §1"}, "[31]": {"substrate": "CC1(C)[C@@H](C=C(Cl)Cl)[C@@H]1C(=O)OCc1cccc(Oc2ccccc2)c1", "assay": "as §1"}, "[32]": {"substrate": "CC(C)=C[C@H]1[C@H](C(=O)OCc2coc(Cc3ccccc3)c2)C1(C)C", "assay": "as §1"}, "[33]": {"substrate": "CCOC(=O)[C@H](CCc1ccccc1)N[C@@H](C)C(=O)N1C(=O)N(C)C[C@H]1C(=O)O", "assay": "as §1"}, "[34]": {"substrate": "CC(C)[C@H](N)C(=O)OC[C@H]1O[C@@H](n2cc(F)c(=O)[nH]c2=O)C[C@@H]1O", "assay": "as §1"}, "[35]": {"substrate": "CCOC(=O)[C@H](CCc1ccccc1)N[C@H]1CCCN2CCC[C@@H](C(=O)O)N2C1=O", "assay": "as §1"}, "[36]": {"substrate": "CCCCCOC(=O)Nc1nc(=O)n([C@@H]2O[C@H](C)[C@@H](O)[C@H]2O)cc1F", "assay": "as §1"}, "[37]": {"substrate": "COc1ccc2cc([C@@H](C#N)OC(=O)[C@@H]3[C@@H](C=C(Cl)Cl)C3(C)C)ccc2c1", "assay": "as §1"}, "[38]": {"substrate": "CC1(C)[C@H](C=C(Cl)Cl)[C@@H]1C(=O)OCc1cccc(Oc2ccccc2)c1", "assay": "as §1"}}, "note": "“And” between values parts separate entries of the source, which are not always exact repeats. Equal entries are not always repeated."}
{"protein": "Liver carboxylesterase 1 (Homo sapiens) (protein) MWLRAFILATLSASAAWGHPSSPPVVDTVHGKVLGKFVSLEGFAQPVAIFLGIPFAKPPLGPLRFTPPQPAEPWSFVKNATSYPPMCTQDPKAGQLLSELFTNRKENIPLKLSEDCLYLNIYTPADLTKKNRLPVMVWIHGGGLMVGAASTYDGLALAAHENVVVVTIQYRLGIWGFFSTGDEHSRGNWGHLDQVAALRWVQDNIASFGGNPGSVTIFGESAGGESVSVLVLSPLAKNLFHRAISESGVALTSVLVKKGDVKPLAEQIAITAGCKTTTSAVMVHCLRQKTEEELLETTLKMKFLSLDLQGDPRESQPLLGTVIDGMLLLKTPEELQAERNFHTVPYMVGINKQEFGWLIPMQLMSYPLSEGQLDQKTAMSLLWKSYPLVCIAKELIPEATEKYLGGTDDTVKKKDLFLDLIADVMFGVPSVIVARNHRDAGAPTYMYEFQYRPSFSSDMKPKTVIGDHGDELFSVFGAPFLKEGASEEEIRLSKMVMKFWANFARNGNPNGEGLPHWPEYNQKEGYLQIGANTQAAQKLKDKEVAFWTNLFAKKAVEKPPQTEHIEL", "values": [{"measurement": "Km", "setting": "not read", "result": 55.7, "unit": "µM"}, {"measurement": "Km", "setting": "[1]", "result": 9.8, "unit": "µM"}, {"measurement": "Km", "setting": "[2]", "result": 800, "unit": "µM"}, {"measurement": "Km", "setting": "[3]", "result": 1.9, "unit": "µM"}, {"measurement": "Km", "setting": "[4]", "result": 134, "unit": "µM"}, {"measurement": "Km", "setting": "[5]", "result": 707, "unit": "µM"}, {"measurement": "Km", "setting": "[6]", "result": 154, "unit": "µM"}, {"measurement": "Km", "setting": "[7]", "result": 1.5, "unit": "µM"}, {"measurement": "Km", "setting": "[8]", "result": 130, "unit": "µM"}, {"measurement": "Km", "setting": "[9]", "result": 1.5, "unit": "µM"}, {"measurement": "Km", "setting": "[10]", "result": 177, "unit": "µM"}, {"measurement": "Km", "setting": "[11]", "result": 2.4, "unit": "µM"}, {"measurement": "Km", "setting": "[12]", "result": 460, "unit": "µM"}, {"measurement": "Km", "setting": "[13]", "result": 359, "unit": "µM"}, {"measurement": "Km", "setting": "[14]", "result": 1.7, "unit": "µM"}, {"measurement": "Km", "setting": "[15]", "result": 8300, "unit": "µM"}, {"measurement": "Km", "setting": "[16]", "result": 3000, "unit": "µM"}, {"measurement": "Km", "setting": "[17]", "result": 1.4, "unit": "µM"}, {"measurement": "Km", "setting": "[18]", "result": 120, "unit": "µM"}, {"measurement": "Km", "setting": "[19]", "result": 6300, "unit": "µM"}, {"measurement": "Km", "setting": "[20]", "result": "85 µM and 95 µM"}, {"measurement": "Km", "setting": "[21]", "result": 0.3, "unit": "µM"}, {"measurement": "Km", "setting": "[22]", "result": 786, "unit": "µM"}, {"measurement": "Km", "setting": "[23]", "result": 1900, "unit": "µM"}, {"measurement": "Km", "setting": "[24]", "result": 1450, "unit": "µM"}, {"measurement": "Km", "setting": "[25]", "result": 43.8, "unit": "µM"}, {"measurement": "Km", "setting": "[26]", "result": 23.8, "unit": "µM"}, {"measurement": "Km", "setting": "[27]", "result": 734, "unit": "µM"}, {"measurement": "Km", "setting": "[28]", "result": 1500, "unit": "µM"}, {"measurement": "Km", "setting": "[29]", "result": 89.9, "unit": "µM"}, {"measurement": "Km", "setting": "[30]", "result": 970, "unit": "µM"}, {"measurement": "Km", "setting": "[31]", "result": 9.8, "unit": "µM"}, {"measurement": "Km", "setting": "[32]", "result": 6.72, "unit": "µM"}, {"measurement": "Km", "setting": "[33]", "result": 287, "unit": "µM"}, {"measurement": "Km", "setting": "[34]", "result": 3580, "unit": "µM"}, {"measurement": "Km", "setting": "[35]", "result": 1300, "unit": "µM"}, {"measurement": "Km", "setting": "[36]", "result": 1300, "unit": "µM"}, {"measurement": "Km", "setting": "[37]", "result": 0.7, "unit": "µM"}, {"measurement": "Km", "setting": "[38]", "result": 23.8, "unit": "µM"}]}
